Our source for the T1/2 values is patent publication US20100196390A1 (RINAT NEUROSCIENCE, published 2010).

Positions count from the first letter of the chain named.

The labels stand for the following.
B1: 5-F1 (Fab, V domains shown)
VH: QVQLVQSGAEVKKPGASVKVSCKASGYTFTNYVILWVRQAPGQGLEWMGYINPYNDGTKYNEKFKGRVTMTRDTSTSTVYMELSSLRSEDTAVYYCARLLKYRRFKYYAIDYWGQGTTVTVSS
VL: DIQMTQSPSSLSASVGDRVTITCRASENVYSNLAWYQQKPGKAPKLLIYAASNLQSGVPSRFSGSGSGTDFTFTISSLQPEDIATYYCQHFWYSPFLFGQGTKLEIK
notes: Fab
B2: 6-B11 (Fab, V domains shown)
VH: B1 VH with K106S
VL: B1 VL with Y93Q, L97T
notes: Fab
B3: 9-D6 (Fab, V domains shown)
VH: B1 VH with K106S, Y112V
VL: B1 VL with W92S, L97T
notes: Fab
B4: 10-F12 (Fab, V domains shown)
VH: B1 VH with V33D, L35I, D56G, G57R, T58R, K59E, K106R
VL: B1 VL with S31R, Y93G, L97T
notes: Fab
B5: 6-A6 (Fab, V domains shown)
VH: B1 VH
VL: B1 VL with L97V
notes: Fab
B6: 10-C7 (Fab, V domains shown)
VH: B1 VH with V33D, L35I, Y50H, D56G, G57R, T58R, K59E, K106R
VL: B1 VL with N28S, W92V, L97T
notes: Fab
B7: 8-D2 (Fab, V domains shown)
VH: B1 VH with K106S, I110A
VL: B1 VL with H90N, L97T
notes: Fab
B8: 7-B8 (Fab, V domains shown)
VH: B1 VH with K106R
VL: B1 VL with F96C, L97T
notes: Fab
B9: 11-C6 (Fab, V domains shown)
VH: B1 VH with V33D, L35I, D56G, G57R, T58R, K59E, K106R
VL: B1 VL with E27S, F71Y, Y93G, L97T
notes: Fab
B10: 7-D1 (Fab, V domains shown)
VH: B1 VH with K106S, Y112V
VL: B1 VL with S94L, L97T
notes: Fab
B11: 10-F7 (Fab, V domains shown)
VH: B1 VH with V33D, L35I, D56G, G57R, T58R, K59E, K106R
VL: B1 VL with N32H, W92V, L97T
notes: Fab
B12: 7-F1 (Fab, V domains shown)
VH: B1 VH with K106R
VL: B1 VL with H90N, L97T
notes: Fab
B13: 11-G2 (Fab, V domains shown)
VH: B1 VH with V33D, L35I, T58R, Y60E, K106R
VL: B1 VL with Y93D, L97T
notes: Fab
B14: 6-B4 (Fab, V domains shown)
VH: B1 VH with K106Q
VL: B1 VL with L97T
notes: Fab
B15: 9-D9 (Fab, V domains shown)
VH: B1 VH with K106R
VL: B1 VL with L97A
notes: Fab
B16: 10-G2 (Fab, V domains shown)
VH: B1 VH with V33D, L35I, D56G, G57R, T58R, K59E, K106R
VL: B1 VL with N28A, Y93G, L97T
notes: Fab
B17: 7-C11 (Fab, V domains shown)
VH: B1 VH with K106S
VL: B1 VL with W92K, L97T
notes: Fab
B18: 8-H7 (Fab, V domains shown)
VH: B1 VH with K106S, Y107F
VL: B1 VL with W92V, L97T
notes: Fab
B19: 10-D11 (Fab, V domains shown)
VH: B1 VH with V33D, L35I, D56G, G57R, T58R, K59E, K106R
VL: B1 VL with S31R, L97T
notes: Fab
B20: 7-B9 (Fab, V domains shown)
VH: B1 VH with K106S, Y112V
VL: B1 VL with F96W, L97T
notes: Fab
B21: 6-D12 (Fab, V domains shown)
VH: B1 VH with K106R
VL: B1 VL with Y93A, L97T
notes: Fab
B22: 9-G8 (Fab, V domains shown)
VH: B1 VH with K106S
VL: B1 VL with L97W
notes: Fab
B23: 11-D7 (Fab, V domains shown)
VH: B1 VH with V33D, L35I, D56G, G57R, T58R, K59E, K106R
VL: B1 VL with S31R, Y93G, L97T
notes: Fab
B24: 11-F9 (Fab, V domains shown)
VH: B1 VH with V33D, L35I, T58R, Y60E, K106R
VL: B1 VL with S31R, L97T
notes: Fab
B25: 10-G3 (Fab, V domains shown)
VH: B1 VH with V33D, L35I, D56E, G57R, K59E, K106R
VL: B1 VL with S31R, A50I, W92V, L97T
notes: Fab
B26: 10-B9 (Fab, V domains shown)
VH: B1 VH with V33D, L35I, T58R, Y60E, K106R
VL: B1 VL with N28P, Y93G, L97T
notes: Fab
B27: 9-D11 (Fab, V domains shown)
VH: B1 VH
VL: B1 VL with Y93M, L97T
notes: Fab
B28: 10-C10 (Fab, V domains shown)
VH: B1 VH with V33D, L35I, D56G, G57R, T58R, K59E, K106R
VL: B1 VL with S31R, W92V, L97T
notes: Fab
B29: 11-B9 (Fab, V domains shown)
VH: B1 VH with V33D, L35I, D56G, G57R, T58R, K59E, K106R
VL: B1 VL with E27T, S31R, Y93G, L97T
notes: Fab
B30: 10-A7 (Fab, V domains shown)
VH: B1 VH with V33D, L35I, D56G, G57R, T58R, K59E, K106R
VL: B1 VL with N32H, L97T
notes: Fab
B31: 8-B2 (Fab, V domains shown)
VH: B1 VH with K106R
VL: B1 VL with W92Y, L97T
notes: Fab
B32: 6-E10 (Fab, V domains shown)
VH: B1 VH with R104P, K106S
VL: B1 VL with W92S, Y93L, L97T
notes: Fab
B33: 6-C10 (Fab, V domains shown)
VH: B1 VH with K106R
VL: B1 VL with P95W, L97T
notes: Fab
B34: 5-G4 (Fab, V domains shown)
VH: B1 VH with K106S
VL: B1 VL with Y93G, L97T
notes: Fab
B35: 10-E10 (Fab, V domains shown)
VH: B1 VH with V33D, L35I, T58R, Y60E, K106R
VL: B1 VL with Y93G, L97T
notes: Fab
B36: 10-A5 (Fab, V domains shown)
VH: B1 VH with V33D, L35I, K106R
VL: B1 VL with N28T, Y93G, L97T
notes: Fab
B37: 11-B11 (Fab, V domains shown)
VH: B1 VH with V33D, L35I, D56G, G57R, T58R, K59E, K106R
VL: B1 VL with N28P, Y93G, L97T
notes: Fab
B38: 7-B1 (Fab, V domains shown)
VH: B1 VH with K106R
VL: B1 VL with L97K
notes: Fab
B39: 6-H12 (Fab, V domains shown)
VH: B1 VH with K106S
VL: B1 VL with Y93H, L97T
notes: Fab
B40: 10-F10 (Fab, V domains shown)
VH: B1 VH with V33D, L35I, T58R, Y60E, K106R
VL: B1 VL with S31L, Y93G, L97T
notes: Fab
B41: 8-G2 (Fab, V domains shown)
VH: B1 VH with K106R, Y107F
VL: B1 VL with W92G, L97I
notes: Fab
B42: 11-D8 (Fab, V domains shown)
VH: B1 VH with V33D, L35I, D56G, G57R, T58R, K59E, K106R
VL: B1 VL with E27T, Y93G, L97T
notes: Fab
B43: 8-C8 (Fab, V domains shown)
VH: B1 VH with K106R
VL: B1 VL with L97G
notes: Fab
B44: 11-C7 (Fab, V domains shown)
VH: B1 VH with V33D, L35I, D56R, G57R, T58I, K59E, K106R
VL: B1 VL with N32H, Y93G, L97T
notes: Fab

Chain of TrkB (Q16620 32-430 limits assumed): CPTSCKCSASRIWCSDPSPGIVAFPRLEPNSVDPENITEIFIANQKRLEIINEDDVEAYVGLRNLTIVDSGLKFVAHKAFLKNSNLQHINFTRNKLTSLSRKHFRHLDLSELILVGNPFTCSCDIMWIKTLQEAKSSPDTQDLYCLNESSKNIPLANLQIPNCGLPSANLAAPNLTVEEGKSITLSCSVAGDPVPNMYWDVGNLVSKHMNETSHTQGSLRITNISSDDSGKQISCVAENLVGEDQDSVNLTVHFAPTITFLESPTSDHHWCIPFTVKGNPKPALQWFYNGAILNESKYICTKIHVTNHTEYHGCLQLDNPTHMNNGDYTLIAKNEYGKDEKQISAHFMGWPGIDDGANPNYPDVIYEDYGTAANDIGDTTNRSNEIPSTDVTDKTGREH

This test addresses TrkB (Homo sapiens (Human), UniProt Q16620 32-430). The test is described as follows: koff of Fab at 25 C; T1/2=Log2/koff. A digest of the protocol:
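Monovalent Fab fragments were tested at 25° C by surface plasmon resonance on a Biacore instrument, against TrkB extracellular-domain monomer amine-coupled to the chip at low capacity. Fabs were injected low to high as a 3-fold serial dilution from 100 nM for 84 sec, with a 10 minute dissociation after the top sample. The dissociation half-life was calculated from koff, which was fitted to a Langmuir binding model in BIAevaluation. The formula used was T1/2 = Log 2/koff.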
In turn, B1 yielded a T1/2 of 1.6 min.

In the case of B2, the T1/2 turned out to be 1.44 min.

B3: the T1/2 was determined as 1.45 min.

On to B4, for which the T1/2 amounted to 5.7 min.

B5 had a T1/2 of 1.59 min.

The molecule B6 displayed a T1/2 of 4.1 min.

In the case of B7, the T1/2 came out at 1.81 min.

As for B8, the T1/2 is 1.18 min.

In the case of B9, the T1/2 worked out at 10.8 min.

Regarding B10, the T1/2 was 0.7 min.

The molecule B11 had a T1/2 of 4.9 min.

In turn, B12 came in with a T1/2 of 0.54 min.

The molecule B13 yielded a T1/2 of 1.5 min.

B14 gave a T1/2 of 1.55 min.

The molecule B15 registered a T1/2 of 1.54 min.

B16 gave a T1/2 of 5.2 min.

B17 gave a T1/2 of 1.07 min.

The molecule B18 had a T1/2 of 1.18 min.

Regarding B19, the T1/2 came out at 4.2 min.

For B20, the T1/2 came to 1.79 min.

With B21, the T1/2 amounted to 1.7 min.

As for B22, the T1/2 worked out at 1.13 min.

In turn, B23 registered a T1/2 of 4.1 min.

The molecule B24 gave a T1/2 of 6.2 min.

In turn, B25 registered a T1/2 of 4.8 min.

The molecule B26 gave a T1/2 of 4 min.

B27 showed a T1/2 of 1.55 min.

For B28, the T1/2 was determined as 4.3 min.

Consider B29, for which the T1/2 amounted to 4.9 min.

In turn, B30 registered a T1/2 of 3 min.

Regarding B31, the T1/2 was found to be 1.46 min.

Molecule B32 gave a T1/2 of 1.3 min.

The molecule B33 returned a T1/2 of 1.55 min.

B34: the T1/2 was 1.35 min.

The molecule B35 returned a T1/2 of 2.7 min.

B36: the T1/2 stood at 1 min.

B37 yielded a T1/2 of 5.5 min.

Regarding B38, the T1/2 was 0.81 min.

Take B39: the T1/2 was 1.54 min.

Regarding B40, the T1/2 worked out at 4.1 min.

In the case of B41, the T1/2 amounted to 1.88 min.

With B42, the T1/2 was 2.5 min.

Molecule B43 registered a T1/2 of 1.78 min.

As for B44, the T1/2 was 4.9 min.
